Bounds are passed on as bounds.

Assay [1] deals with CD33 on HL60 cells (UniProt P20138). Nature of the assay: cell-based or functional assay.
Assay [2] has as its target soluble CD33 (UniProt P20138). Nature of the assay: cell-based or functional assay.

In the case of “P67scFv/h.CD28/Tm31/FcRγ chimeric receptor (from UniProt P10747 118-134; P30273 45-86)”, in assay [1], the IL-2 production, cell surface-expressed antigen with respect to soluble antigen was 5 fold excess and the IL-2 production, change against the CD28 transmembrane receptor (fold increase) is > 5. Moreover, in assay [2], the IL-2 production, change against the CD28 transmembrane receptor (fold decrease) was < 3.
For “P67scFv/h.CD28/Tm24/TCRζ chimeric receptor (from UniProt P10747 118-134; P20963 31-142)”, the IL-2 production, cell surface-expressed antigen with respect to soluble antigen in assay [1] was 2 fold excess.
“P67scFv/h.CD28/CD28Tm/TCRζ receptor (from UniProt P10747 118-134; P10747 135-161; P20963 31-142)”: the IL-2 production, cell surface-expressed antigen with respect to soluble antigen in assay [1] was > 2 fold deficit.
Regarding “P67scFv/h.CD28/Tm24/FcRγ chimeric receptor (from UniProt P10747 118-134; P30273 45-86)”, in assay [1], the IL-2 production, cell surface-expressed antigen with respect to soluble antigen was determined as 5 fold excess and the IL-2 production, change against the CD28 transmembrane receptor (fold increase) is > 5. Besides, in assay [2], the IL-2 production, change against the CD28 transmembrane receptor (fold decrease) was < 3.
In assay [1], “P67scFv/h.CD28/CD28Tm/FcRγ chimeric receptor (from UniProt P10747 118-134; P10747 135-161; P30273 45-86)” returned an IL-2 production, cell surface-expressed antigen with respect to soluble antigen of 3 fold deficit.

Values taken from US7052906.
